Assay results as given in patent US20070031956A1 (VERTEX PHARMACEUTICALS, published 2007).

Target: the molecule itself
Assay: analytical ultracentrifugation (sedimentation velocity), monomer-dimer self-association
Description: All sedimentation velocity experiments were performed with the Beckman Coulter Optima XL-I using an An60 Ti rotor and charcoal-filled Epon double-sector cells. […] Experiments were performed at 42,000 rpm for 8 h at 20° C. Radial absorbance scans were collected in continuous scan mode at 280 nm every 10 min at a spacing of 0.001 cm.

B1: Full-length human Pim-1 kinase (residues M1-K313) with N-terminal HexaHis tag and thrombin cleavage site (enzyme)
chain: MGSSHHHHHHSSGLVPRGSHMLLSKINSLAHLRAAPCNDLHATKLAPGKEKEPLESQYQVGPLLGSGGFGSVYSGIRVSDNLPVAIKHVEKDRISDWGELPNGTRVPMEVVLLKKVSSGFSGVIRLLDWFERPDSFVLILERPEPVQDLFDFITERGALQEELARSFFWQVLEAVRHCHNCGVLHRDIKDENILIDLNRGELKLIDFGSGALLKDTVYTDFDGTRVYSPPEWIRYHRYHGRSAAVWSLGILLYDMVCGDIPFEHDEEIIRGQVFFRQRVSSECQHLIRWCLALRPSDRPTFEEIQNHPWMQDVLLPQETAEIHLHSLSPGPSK
modifications: heterogeneous phosphorylation (mixture of species with 0-5 phosphoryl groups): extensively phosphorylated in the HexaHis tag region; Ser261 major site in Pools III and IV; minor sites Ser8, Thr23 and Ser98
notes: Expressed in E. coli and purified by TALON, Superdex 200 and MonoQ; also called Pim-1 protein
- Kd: 23 µM
- monomer:dimer ratio (dimer share): 20
